{"source": "patent US20040171116A1", "molecules": {"B1": {"name": "mutated rMal d 1 (2762), Q40280 2-159 (protein)", "chain": "GVYTYENEYTSVIPPARLFKAFVLDADNLIPKIAPQAIKHAEILEGDGGPGTIKKITFGEGSQYGYVKHKIDSVDEANYSYAYTLIEGDALTDTIEKVSYETKLVATPDGGSIIKSISHYHTKGDVEIMEEHVKAGKEKAHGLFKLIESYLLDHSDAYN"}, "B2": {"name": "mutated rMal d 1 (2762) (protein)", "chain": "GVYTYENEYTSVIPPARLFKAFVLDADNLIPKIAPQAIKHAEILEGDGGPGTIKKITFGEGSQYGYVKHKIDSVDEANYSYAYTLIEGDALTDTIEKVSYETKLVATPDGGSIIKSISHYHTKGDVEIMEEHVKAGKEKAHGLFKLIESYLLDHSDAYN"}, "B3": {"name": "mutated rMal d 1 (2781), Q40280 2-159 (protein)", "chain": "GVYTYENEYTSEIPPPRLFKAFVLDADNLIPKIAPQAIKHAENIEGNGGPGTIKKITFGEGSQYKYVKHRIDSVDHANYSYAYTLIEGDALTDTIEKVSYETKLVASGSGSIIKSISHYHTKGDVEIMEEHVKAGKEKAHGLFKLIESYLKDHPDAYN"}, "B4": {"name": "mutated rMal d 1 (2760), Q40280 2-159 (protein)", "chain": "GVYTYENEYTSEIPPPRLFKAFVLDADTLIPQIAPQAIKHAEILSGDGGPGTIKKITFGEGSQYGYVKHKIDSVDEANYSYAYTLIEGDALTDTIEKVSYETKLVASGSGSIIKSISHYHTKGDVEIMEEHVKAGKEKAHGLFKLIESYLKDHPDAYN"}, "B5": {"name": "mutated rMal d 1 (2781) (protein)", "chain": "GVYTYENEYTSEIPPPRLFKAFVLDADNLIPKIAPQAIKHAENIEGNGGPGTIKKITFGEGSQYKYVKHRIDSVDHANYSYAYTLIEGDALTDTIEKVSYETKLVASGSGSIIKSISHYHTKGDVEIMEEHVKAGKEKAHGLFKLIESYLKDHPDAYN"}}, "key": {"[1]": {"molecular_target": "mutated rMal d 1 (2781) (apple) (UniProt Q40280)", "test": "Biacore SPR, BV16 on the chip, antigen injected at 5 concentrations"}, "[2]": {"molecular_target": "rBet v 1.2801 (database accession number: Z80104) (birch)", "test": "Biacore SPR, BV16 on the chip, antigen injected at 5 concentrations"}, "[3]": {"molecular_target": "receptor-bound IgE on basophils of birch pollen allergic patients", "test": "cell-based or functional assay"}, "[4]": {"molecular_target": "pooled IgE serum from birch allergic patients (FIG. 8A)", "test": "solid phase IgE inhibition assay (ADVIA Centaur), inhibitor at 3000 ng/test, competitor biotinylated rBet v 1.2801"}, "[5]": {"molecular_target": "pooled IgE serum from birch allergic patients (FIG. 8A)", "test": "solid phase IgE inhibition assay (ADVIA Centaur), reference rBet v 1.2801"}}}
{"molecule": "monoclonal mouse IgG antibody BV16 raised against nBet v 1", "values": [{"measurement": "Kd", "setting": "[1]", "value": 0.27, "unit": "nM"}, {"measurement": "kon", "setting": "[1]", "value": 120000, "unit": "M⁻¹ s⁻¹"}, {"measurement": "Kd", "setting": "[2]", "value": 0.24, "unit": "nM"}, {"measurement": "koff", "setting": "[2]", "value": "2.5e-05", "unit": "s⁻¹"}, {"measurement": "kon", "setting": "[2]", "value": 100000, "unit": "M⁻¹ s⁻¹"}]}
{"molecule": "B1", "values": [{"measurement": "shift of the histamine release curve toward higher antigen concentrations compared to rBet v 1.2801", "setting": "[3]", "value": 20, "unit": "fold"}]}
{"molecule": "B2", "values": [{"measurement": "percent inhibition of binding of serum-IgE to biotinylated rBet v 1.2801", "setting": "[4]", "value": 62, "unit": "%"}, {"measurement": "fold higher antigen concentration than rBet v 1.2801 to reach the same IgE inhibition (62%)", "setting": "[5]", "value": 500, "unit": "fold"}]}
{"molecule": "B3", "values": [{"measurement": "shift of the histamine release curve toward higher antigen concentrations compared to rBet v 1.2801", "setting": "[3]", "value": 2, "unit": "fold"}]}
{"molecule": "B4", "values": [{"measurement": "concentration required to trigger histamine release in patient (p) compared to rBet v 1.2801", "setting": "[3]", "value": 100, "unit": "fold"}]}
{"molecule": "B5", "values": [{"measurement": "percent inhibition of binding of serum-IgE to biotinylated rBet v 1.2801", "setting": "[4]", "value": 39, "unit": "%"}, {"measurement": "fold higher antigen concentration than rBet v 1.2801 to reach the same IgE inhibition (39%)", "setting": "[5]", "value": 1000, "unit": "fold"}]}
